Reference: the supplement of paper PMC10724198
± gives the standard deviation of the averaged measurements.

System: Saccharomyces cerevisiae
Assay: protein stability index of tFT-peptide fusion (C-terminal peptide) (PSI (0-1 scale)); higher = more stable (slower turnover)
Details: temperature: 30 C
Procedure: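 MPS profiling in S. cerevisiae of the yeast C-terminome library: the last 12 aa of each annotated ORF are fused to the C-terminus of a sfGFP-mCherry timer, after a GGGS linker. Cells are FACS-sorted into 8 mCherry/sfGFP bins and deep-sequenced. PSI runs from 0 (unstable) to 1 (stable); wild type and das1Δ backgrounds, two technical replicates each.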

[1] = genetic background: das1 deletion

Sequence | protein stability index [1] | protein stability index (genetic background: wild type)
KISLLSHAQCYK [YIR016W C-terminal 12 aa] | 0.668 ± 0.024 | 0.6506 ± 0.0051
LLEGIIIKLFLY [YDL011C C-terminal 12 aa] | 0.423 ± 0.0049 | 0.174 ± 0.0066
MMAVDTDVDMDA [YPL071C C-terminal 12 aa] | 0.668 ± 0.012 | 0.673 ± 0.014
IEQYLQTYGASA [URA5 C-terminal 12 aa] | 0.708 ± 0.011 | 0.695 ± 0.014
TQSPADFSSQNH [NHX1 C-terminal 12 aa] | 0.74 ± 0.021 | 0.701 ± 0.021
RTQGEGQGSMFR [TAF11 C-terminal 12 aa] | 0.7233 ± 0.0027 | 0.6719 ± 0.0047
HGGTISLCRFGG [SWT21 C-terminal 12 aa] | 0.686 ± 0.023 | 0.658 ± 0.015
QTILKNKKKISQ [GYP6 C-terminal 12 aa] | 0.701 ± 0.049 | 0.6842 ± 0.0023
HGTAKALAAAKK [RPL29 C-terminal 12 aa] | 0.7098 ± 0.0054 | 0.6697 ± 0.0058
RTRPPTAVAHIA [DUG3 C-terminal 12 aa] | 0.6938 ± 0.0057 | 0.337 ± 0.0086
GKKGQHVGCCVC [YFL066C C-terminal 12 aa] | 0.722 ± 0.0084 | 0.691 ± 0.046
KNKTKQNQAQSW [LTO1 C-terminal 12 aa] | 0.704 ± 0.012 | 0.679 ± 0.017
YGVPDAELKIVG [DGA1 C-terminal 12 aa] | 0.719 ± 0.02 | 0.672 ± 0.019
QSMLDGNSPESV [DCR2 C-terminal 12 aa] | 0.6985 ± 0.0053 | 0.693 ± 0.021
QHLKTHKKHGDF [MSN4 C-terminal 12 aa] | 0.719 ± 0.0085 | 0.6983 ± 0.001
LNNTAASTGPGR [YKE2 C-terminal 12 aa] | 0.684 ± 0.011 | 0.655 ± 0.0052
KWIEYVEEFQNW [FRE5 C-terminal 12 aa] | 0.7168 ± 0.00097 | 0.73 ± 0.016
NFKNSSAKSKRS [PKH2 C-terminal 12 aa] | 0.682 ± 0.014 | 0.695 ± 0.0083
HVCVDVDVIVST [TRM12 C-terminal 12 aa] | 0.6505 ± 0.0056 | 0.6574 ± 0.001
LYQCRMPCLYSI [YGL193C C-terminal 12 aa] | 0.659 ± 0.026 | 0.586 ± 0.014
VDIRSFRQDMDL [YJR056C C-terminal 12 aa] | 0.703 ± 0.021 | 0.664 ± 0.017

Sequence | protein stability index [1] | protein stability index (genetic background: wild type)
LVGGGIKKSGKK [TMA7 C-terminal 12 aa] | 0.67 ± 0.016 | 0.736 ± 0.011
LASALKELQDAA [YHR112C C-terminal 12 aa] | 0.691 ± 0.0097 | 0.682 ± 0.031
NFLNLLSPLPSV [TOM7 C-terminal 12 aa] | 0.72262 ± 0.00027 | 0.6951 ± 0.0031
QSARRQRGSIAM [SDS24 C-terminal 12 aa] | 0.683 ± 0.02 | 0.6657 ± 0.0037
KLRREDEIIVYA [REC8 C-terminal 12 aa] | 0.6145 ± 0.0033 | 0.644 ± 0.0052
MNGIPREAFVQF [MEX67 C-terminal 12 aa] | 0.68 ± 0.0078 | 0.701 ± 0.022
LYGQRFLATGFQ [AIM19 C-terminal 12 aa] | 0.714 ± 0.0097 | 0.705 ± 0.024
LNTYVILFYTVY [YOL166W-A C-terminal 12 aa] | 0.273 ± 0.046 | 0.263 ± 0.0054
LFCNYITETVEN [ASH1 C-terminal 12 aa] | 0.694 ± 0.0018 | 0.645 ± 0.095
WTALVVNILGRF [CWH41 C-terminal 12 aa] | 0.634 ± 0.012 | 0.634 ± 0.011
DDFDMMEATQLS [MUD2 C-terminal 12 aa] | 0.70816 ± 0.00051 | 0.696 ± 0.0094
PKWCSTMCSTAT [YDR445C C-terminal 12 aa] | 0.69 ± 0.03 | 0.743 ± 0.049
FNISDYFSDIHE [ORC5 C-terminal 12 aa] | 0.744 ± 0.02 | 0.7 ± 0.023
SNNPKLHHAKEA [MEP3 C-terminal 12 aa] | 0.696 ± 0.041 | 0.375 ± 0.013
RKSKKDTDSDSD [BMT5 C-terminal 12 aa] | 0.7 ± 0.023 | 0.695 ± 0.055
QHDEKPFYKRMF [HXT8 C-terminal 12 aa] | 0.723 ± 0.026 | 0.666 ± 0.045
TLIDYFIENDGL [LYS5 C-terminal 12 aa] | 0.7227 ± 0.0034 | 0.761 ± 0.092
PLITPSGFRSSL [YNR025C C-terminal 12 aa] | 0.707 ± 0.0084 | 0.715 ± 0.025
RLNKLEAVLQTL [PML39 C-terminal 12 aa] | 0.685 ± 0.033 | 0.72 ± 0.011
VKKLVTDMLAKI [CFT2 C-terminal 12 aa] | 0.6957 ± 0.00094 | 0.669 ± 0.029
TCLTGEVIFPPR [NPC2 C-terminal 12 aa] | 0.7115 ± 0.0058 | 0.72 ± 0.017

Sequence | protein stability index [1] | protein stability index (genetic background: wild type)
EGRKVKKVSFAQ [LOC1 C-terminal 12 aa] | 0.7297 ± 0.0035 | 0.7111 ± 0.0032
RKFHVVDTSLFA [MOG1 C-terminal 12 aa] | 0.688 ± 0.01 | 0.688 ± 0.05
YDEDEGSDYDFI [SUP45 C-terminal 12 aa] | 0.6992 ± 0.0034 | 0.684 ± 0.012
AEFFTKFDELVV [EHT1 C-terminal 12 aa] | 0.6616 ± 0.0027 | 0.666 ± 0.045
KLLQIHKSKQQD [TAH11 C-terminal 12 aa] | 0.69 ± 0.013 | 0.706 ± 0.012
IPLTEFDLSDSK [YMR253C C-terminal 12 aa] | 0.701 ± 0.0095 | 0.73422 ± 0.00045
EDRQAFFDSLKE [YGK1 C-terminal 12 aa] | 0.724 ± 0.036 | 0.651 ± 0.025
ATRVSSRLRNKK [EAF7 C-terminal 12 aa] | 0.7311 ± 0.0026 | 0.701 ± 0.025
GPEKAAELAFLA [YML079W C-terminal 12 aa] | 0.685 ± 0.024 | 0.6497 ± 0.0026
GYLIWSMGNRRR [YFL051C C-terminal 12 aa] | 0.731 ± 0.018 | 0.71 ± 0.016
KDVIVDHHSDLN [SAP4 C-terminal 12 aa] | 0.706 ± 0.048 | 0.701 ± 0.052
SRFDYLTRKNAL [CBK1 C-terminal 12 aa] | 0.6716 ± 0.0016 | 0.71 ± 0.051
TILFMLVLYTIV [YDL241W C-terminal 12 aa] | 0.222 ± 0.017 | 0.222 ± 0.023
QQQQQKKESSTA [GIM5 C-terminal 12 aa] | 0.727 ± 0.0087 | 0.7 ± 0.037
LIGGVGLSIWKK [RTT10 C-terminal 12 aa] | 0.7069 ± 0.0038 | 0.668 ± 0.032
FKCVHTPCNVYI [YER078W-A C-terminal 12 aa] | 0.679 ± 0.0076 | 0.665 ± 0.037
DEDVDFLKVQVF [HAP4 C-terminal 12 aa] | 0.709 ± 0.041 | 0.747 ± 0.064
GNLRDTLIETYS [TIF6 C-terminal 12 aa] | 0.6559 ± 0.0033 | 0.679 ± 0.0088
LDNILADLELDV [YIL001W C-terminal 12 aa] | 0.72202 ± 0.00032 | 0.684 ± 0.046
